In the DeepSol protein solubility set:

Experiment: soluble on expression in E. coli; label from the status in PepcDB or PDB records
For “MTITPATHAISINPATGEQLSVLPWAGADDIENALQLAAAGFRDWRETNIDYRAEKLRDIGKALRARSEEMAQMITREMGKPINQARAEVAKSANLCDWYAEHGPAMLKAEPTLVENQQAVIEYRPLGTILAIMPWNFPLWQVMRGAVPIILAGNGYLLKHAPNVMGCAQLIAQVFKDAGIPQGVYGWLNADNDGVSQMIKDSRIAAVTVTGSVRAGAAIGAQAGAALKKCVLELGGSDPFIVLNDADLELAVKAAVAGRYQNTGQVCAAAKRFIIEEGIASAFTERFVAAAAALKMGDPRDEENALGPMARFDLRDELHHQVEKTLAQGARLLLGGEKMAGAGNYYPPTVLANVTPEMTAFREEMFGPVAAITIAKDAEHALELANDSEFGLSATIFTTDETQARQMAARLECGGVFINGYCASDARVAFGGVKKSGFGRELSHFGLHEFCNIQTVWKDRI”, the “soluble on expression in E. coli” value was “soluble”. In the case of “MTKAADDNIIVGLDIGTATVSALVGEILPDGQINIIGAGSSPSRGMDKGGVNDLESVVKSVQRAIDQAELMAECQISRVFISLSGKHIASRIEKGMGTISDEEVSQEDMDRAIHTAKSIKIGDEQ”, the “soluble on expression in E. coli” value was “not soluble”. In the case of “MTKHVAVLLAHGFEEAEAVIFIDIMRRLDIRVDILSCEATTALSTYFETPISADALLSDRLDHHYDAVMMPGGPKGTDSLTANPQVIAFLRRHIAQDKYICALCSSGAKVLAAHHLLAGRTYSTGDKLADKFADGAYLDQDVVVDGKFITAKGLGVSFEFAFTVARHLLSDNLPKVEHQASHIYFKHGSAQT”, the “soluble on expression in E. coli” value was “not soluble”. For “MTKIAFVFPGQGAQKVGMGQDVAAEYPEAKKIYDDADERLGFSITEIITEGPIELLTKSENAQPALVSTSVAILRALETYGVKADYVAGHSLGEYSALVAGGFLEASDAIYLVRKRGELMEAAVPNGAGAMAAVLGVDRETLKTITEEVTKEGDAVQLANLNCPGQIVISGTTAGVEKAGEKAKESGAKRVLPLAVSGPFHSSLMEPAALAFRDVLAEVKISDGQIPVVNNVDAKETTDKSEISDKLIKQIYSPVLWEDIVEELIKNGVDTFVEIGSGKVLAGLIKKINRDVTVLSAGDAESVKSVAATLKGE”, the “soluble on expression in E. coli” value was “not soluble”. For “MTKKYLTFDCYGTLINTEPLYQWVANLGLAVGLDPLTVRKAYATYEDDPASVNPYLDYSTLVRADLKHLDRLFEQRHFFESHYVECLEVQRHLLPYADVIPTLTAWQQLGYQLIIMSNSSWDIMPANIAALKVSFTAVVTAEDIQAYKPALAFFETVQERFKLTADNHWHIARGYESDVVPASAMQWPMIWINRDQRQPTSSERPTHMVTDLAAVKQWVN”, the “soluble on expression in E. coli” value was “not soluble”. In the case of “MTKLPQTQGVLNFIQKYLYNSTNYNFEDGSTQAINVPYPDSGVYENYILHYPDATSTELLDINIDQLYSEVMVLTDPKIERAYEYILEERDPGTSSTNILVTVGVE”, the “soluble on expression in E. coli” value was “not soluble”. With “MTKNTSYHYSIIIPHKNTPRLLERCLCSIPTWDEIQIIIIDDNSNSESVDFSHFPGNGRKNTEVLFTKEGKGAGYARNIGLSHARGKWIIFADADDFFTADCFTILNEYMDSPHEVIYFNVRFVMSDNPSQESRRGTYYTNFFNDVNPENKLRYQSQVPWGKMIRRSFLSTFHIQFDETRIANDVYFSCLVGIYAPKATTDRRIIYYCTESGQSLAMSKQDRESLIIRFNASMKCNRLLRQEKIHYYLSPLPWCIPSAKTKEWLPAKYFFEYLFFFRLQAFKELYYAFSAILSHMNEPATKETDNQCNKKTTNLRE” the “soluble on expression in E. coli” value was “not soluble”. In the case of “MTKQLPNLQVALDHSNLKGAITAAVSVGNEVDVIEAGTVCLLQVGSELVEVLRSLFPDKIIVADTKCADAGGTVAKNNAVRGADWMTCICSATIPTMKAARKAIEDINPDKGEIQVELYGDWTYDQAQQWLDAGISQAIYHQSRDALLAGETWGEKDLNKVKKLIEMGFRVSVTGGLSVDTLKLFEGVDVFTFIAGRGITEAKNPAGAARAFKDEIKRIWG”, the “soluble on expression in E. coli” value was “soluble”. In the case of “MTKQQIEKLADLLPPFAATLYLDMIPEFQEGYASYVYQTPKQDIQKRRIKQLTKNFERLLDTPSFYVMPVTRKTAEQLLADKGLAYHLLSTVAANQVFAAAVNEDQMLFQVLRNGARVAFVILQEKGEFLEMTLGILETVTENEVPAAIVEAVQTYLLADMQEKLPSLSIMVSQESSKLFYQEQGFVLLAKGCKPGNENDSDVCQLVKYFSKP”, the “soluble on expression in E. coli” value was “not soluble”. For “MTKRSDSVAPKERINIKYVPATGDEQAEVELPHKMMVLGDFGLDDSRSLEDRQVMRIDKHTFNNVLNDADVSLAMSVPSALDATPNAELAVNLQFKSIQDFGPDRIARQVPELNKLLQLREALVALKGPLGNVPTFRKQLQQLLNDAHARKQLAQELDLVLEAPKAD”, the “soluble on expression in E. coli” value was “not soluble”. For “MTLHELLEKPVWKMTGEELLFLAQQGSTQQEGDTQDKAPAKEERHFVYGLSGLARLFGCSLPTANRIKQSGKIDRAITQIGRKIIIDADLALELAGRKVGGRR”, the “soluble on expression in E. coli” value was “not soluble”. With “MTLPIRNVAIIAHVDHGKTTLVDALLKQSGIFREGEDVPDCVMDSNALERERGITILSKNTAVRYKETLINIVDTPGHADFGGEVERVLGMVDGCLLIVDANEGPMPQTRFVLKKALEKGLRPIVVVNKIDRGQADPHVAVDKVLDLFLELGADEDQCDFPYLFASGMGGYAKENLEAESVDMQPLFDAILRHVPAPVGDPNKPLQLQVTTLDYSEYLGRIVIGRIHNGTIRAGQQAALVVEDGSIVKGKITKLMGFEGLKRVEMTEATAGYIVAVAGFADAYIGETITDPNEPQALPLIKVDEPTLQMTFWVNDSPFAGQEGKLVTSRQVRDRLFRELETNVALRVEETDSPDKFLVSGRGELHLGILIETMRREGFEFQVSQPQVIYRTVNGQPCEPYELLVLDVPADAVGSCIERLGQRKGEMQDMQPVAGDRTQLEFVIPARGLIGFRGEFMRMTRGEGIMNHSFLDYRQLSGDIEARNKGVLISFEEGISTFYAMKNAEDRGSFFITPGTKVYRGMIVGEHNRPQDLELNVCKTKQLTNHRASGGDELVQLQAPVDMSLERALEYIGPDELVEVTPQSIRLRKMAKKLAKR” the “soluble on expression in E. coli” value was “not soluble”. For “MTLPTTIYSFPAYLSRFSSTDKPVKLKFHQYARATLLSNRGRDHNCDGRRTVEIHKLDLSDWQAFNKLATRCNAYDGITMNGDNSFGWNHEATLDNIHAQKYNKAYAGARLTAELKYLLQDVESFEPNSKYTIHEVVLGPGYGTPDYTGQTIGYVVTLPAQMPNCWSSELPTIDLYIDQLRTVTGVSNALGFIIAALLNAYSDLPHDLKIGLRSLSSSAAIYSGLGFERVPQERDISCARMYLTPANHPDLWTQENGEWIYLRN”, the “soluble on expression in E. coli” value was “not soluble”. With “MTLRTKDGLTLYTRRWDVESPRAVICLVHGLGEHSGRYEHVARFFNENGISFAAFDLRGHGRSEGKRGHAEYQQLMDDITLFLQSLDYDCPKILYGHSMGGNLALNYILRYDPDIAGGIISAPFLALPKELPKHLFFILKLLNVVAPSIQLSNGIDPNLISRDREVVEAYVSDPLVHDKISPRFILQSLEAGKWALENADRLRKPILLIHGTADQITSYRASQEFAKRAGELCKFVSYEGFYHEPHNEPEKERVLADMLKWIEEVI” the “soluble on expression in E. coli” value was “not soluble”. For “MTMYQTINEWVDYIDKGCSVLHLDFNVFKKELSLDIKVFEDEGEYTHKISFQNVASAYYSADVGDMRLEKIDPEEYNWQVFEMSYHPEGIGNLSNSIIPEYQSNANFLIDMNRMLIAIEAETVRFDDQSFYAYQLNTKLEHHHHHH”, the “soluble on expression in E. coli” value was “soluble”. In the case of “MTNKISSSDNLSNAVSATDDNASRTPNLNRRALVGGGVGLAARGALASGLQAATLPAGASQVPTTPAGRPMPYAIRPMPEDRRFGYAIVGLGKYALNQILPGFAGCQHSRIEALVSGNAEKAKIVAAEYGVDPRKIYDYSNFDKIAKDPKIDAVYIILPNSLHAEFAIRAFKAGKHVMCEKPMATSVADCQRMIDAAKAANKKLMIGYRCHYDPMNRAAVKLIRENQLGKLGMVTTDNSDVMDQNDPAQQWRLRRELAGGGSLMDIGIYGLNGTRYLLGEEPIEVRAYTYSDPNDERFVEVEDRIIWQMRFRSGALSHGASSYSTTTTSRFSVQGDKAVLLMDPATGYYQNLISVQTPGHANQSMMPQFIMPANNQFSAQLDHLAEAVINNKPVRSPGEEGMQDVRLIQAIYEAARTGRPVNTDWGYVRQGGY”, the “soluble on expression in E. coli” value was “soluble”. For “MTNKQVEISMAEWDVMNIIWDKKSVSANEIVVEIQKYKEVSDKTIRTLITRLYKKEIIKRYKSENIYFYSSNIKEDDIKMKTAKTFLNKLYGGDMKSLVLNFAKNEELNNKEIEELRDILNDISKK”, the “soluble on expression in E. coli” value was “soluble”. In the case of “MTNLVDKAAHSFATQNVVFQTLATASGKLVGVVTLNVEKALNALDLDMVRAMTVQLNLWKKDPLIACVVLDGSGEKAFCAGGDVRALYHASVAAKGQVTEVAKVFFEEEYRLDYLLHTYGKPVLVWGDGIVMGGGLGLMAGASHKVVTETSRIAMPEVTIGLYPDVGGSYFLNRMPGKMGLFLGLTAYHMNAADACYVGLADHYLNRDDKELMFDAMATLDWSDSPALNHQRLDTMINELSNQVDIPKGDSVLAESQEMIDRLMAGSLTDIVTRMSTLSTDEAWLSKACATMLAGSPISWHLAYIQTQLGTKLSLAQCFKWELTVSVNVCAKGDFCEGVRALLIDKDKQPKWQFADVQSVPNSVIEDILTSPWGEEHPLSQLS”, the “soluble on expression in E. coli” value was “soluble”. With “MTNNPLIPQSKLPQLGTTIFTQMSALAQQHQAINLSQGFPDFDGPRYLQERLAHHVAQGANQYAPMTGVQALREAIAQKTERLYGYQPDADSDITVTAGATEALYAAITALVRNGDEVICFDPSYDSYAPAIALSGGIVKRMALQPPHFRVDWQEFAALLSERTRLVILNTPHNPSATVWQQADFAALWQAIAGHEIFVISDEVYEHINFSQQGHASVLAHPQLRERAVAVSSFGKTYHMTGWKVGYCVAPAPISAEIRKVHQYLTFSVNTPAQLALADMLRAEPEHYLALPDFYRQKRDILVNALNESRLEILPCEGTYFLLVDYSAVSTLDDVEFCQWLTQEHGVAAIPLSVFCADPFPHKLIRLCFAKKESTLLAAAERLRQL” the “soluble on expression in E. coli” value was “soluble”. For “MTNNQKLVGRHKRLAFMKVGTEGTYDRITGFTSLIEGKEAKEYARQYIDEATERTDVVGYATGIEYAFDRYTNNAVHEKIANITDDELLGVDAQVEIVSVDVFEEKAGGKYPARKRTYSVVPDTTGDGTDALIYSGNFKAVSEIVKGYCTTTDKWQTCTFVEGEIPAEALEHHHHHH”, the “soluble on expression in E. coli” value was “soluble”. For “MTNPLYTGHPFGTTVTEETLRAIFLPLTQWEDKYRQLILLGKQLPALPDECKAQAKEIAGCENRVWLGFTRSDNGTMHFFGDSEGRIVRGLLAVLLTAVEGKNAAELQARSPLALFDELGLRAQLSASRSQGLNALSEAIVAATHKG”, the “soluble on expression in E. coli” value was “not soluble”. For “MTNQLPKISEAELEIMKVLWLKSPQTANEIIEELEDPMDWKPKTIRTLINRLVQKEAVSYHQDKGRMYAYYPLVSQDNYLQVETKSLLKRFCGAAFKPLLVNFLKEEKLSSEDINELKRLLDEKTEENKRKD”, the “soluble on expression in E. coli” value was “not soluble”. For “MTNVFHHVRNFIEQQPAPAKTLEKSSSPNILYTALPKHWRSNKSFQEPFYVVLLTPVPDNTEVSIWAGNDEKPCEEVRNEKAKVHRQVAKFNDLRFVGRSGRGRKFHLTIVIHSAPMMVATVKNVIKVTVDGPRDARIPKPQGSLKRQAEQQTIFPNDIIRTPGPPMPMTMIPPPWFPLPMTQTFPPSFFPLISPGPHPSISAALWKIHSESMKTPIKQKVEQENVSLNTSTCLSSPSIFITPTSDDRKLKRPSSPRSITKSSETSINLIQETPESVESKRRRNVSITSSNSSSPTIWRPF”, the “soluble on expression in E. coli” value was “not soluble”. With “MTPQELNAECHACDKTPPAANTYKGWSGFVGLAAQLNQAWRVGYDITSGYRVPNASEVYFTYNHGSGNWLPNPNLKAERSTTHTLSLQGRSEKGMLDANLYQSNYRNFLSEEQKLTTSGTPGCTEENAYYGICSDPYKEKLDWQMKNIDKARIRGIELTGRLNVDKVASFVPEGWKLFGSLGYAKSKLSGDNSLLSTQPLKVIAGIDYESPSEKWGVFSRLTYLGAKKVKDAQYTVYENKGWGTPLQKKVKDYPWLNKSAYVFDMYGFYKPAKNLTLRAGVYNLFNRKYTTWDSLRGLYSYSTTNAVDRDGKGLDRYRAPGRNYAVSLEWKF” the “soluble on expression in E. coli” value was “not soluble”.
